The results in this text go back to FireProtDB (doi:10.1002/prot.340220405).

To fix the notation:
B1: Chemotaxis protein CheY, P0AE67 (parent)
chain: MADKELKFLVVDDFSTMRRIVRNLLKELGFNNVEEAEDGVDALNKLQAGGYGFVISDWNMPNMDGLELLKTIRADGAMSALPVLMVTAEAKKENIIAAAQAGASGYVVKPFTAATLEEKLNKIFEKLGM

In the data set the parent is B1. Conditions: Escherichia coli (strain K12); pH 8; 25 °C; Urea; CD; Na-PIPES 50 mM; reversible: yes; structure 1CEY; whole UniProt chain shown.

Regarding A77G, the “ddG of mutation (higher = less stable)” value is 0.3 kcal/mol, the denaturant m value turned out to be 1.56 kcal/mol/M, the “denaturant midpoint (higher = more stable)” value (from here on “denaturant midpoint”) came to 3.32 M and the unfolding free energy was found to be 5.3 kcal/mol.

T112A F14N: the “ddG of mutation (higher = less stable)” value is -1.4 kcal/mol, the denaturant m value stood at 1.68 kcal/mol/M, the “denaturant midpoint” value is 4.12 M and the unfolding free energy is 7 kcal/mol.

In the case of A97G F14N, the “ddG of mutation (higher = less stable)” value is -1.5 kcal/mol, the denaturant m value came out at 1.77 kcal/mol/M, the “denaturant midpoint” value was determined as 4 M and the unfolding free energy amounted to 7.1 kcal/mol.

As to K91A F14N, the “ddG of mutation (higher = less stable)” value is -3.3 kcal/mol, the denaturant m value turned out to be 1.86 kcal/mol/M, the “denaturant midpoint” value was 4.8 M and the unfolding free energy was found to be 8.9 kcal/mol.

For the variant A98G F14N, the “ddG of mutation (higher = less stable)” value is -1.6 kcal/mol, the denaturant m value worked out at 1.76 kcal/mol/M, the “denaturant midpoint” value was determined as 4.09 M and the unfolding free energy was 7.2 kcal/mol.

Consider D38A F14N, for which the “ddG of mutation (higher = less stable)” value is -1 kcal/mol, the denaturant m value was 1.87 kcal/mol/M, the “denaturant midpoint” value came out at 3.58 M and the unfolding free energy was found to be 6.6 kcal/mol.

As to F14N, the “ddG of mutation (higher = less stable)” value is -2.9 kcal/mol, the denaturant m value was found to be 1.8 kcal/mol/M, the “denaturant midpoint” value amounted to 4.72 M and the unfolding free energy came out at 8.5 kcal/mol.

On to A103G F14N, for which the “ddG of mutation (higher = less stable)” value was -1.2 kcal/mol, the denaturant m value was found to be 1.75 kcal/mol/M, the “denaturant midpoint” value worked out at 3.89 M and the unfolding free energy was 6.8 kcal/mol.

On to A80G, for which the “ddG of mutation (higher = less stable)” value was -0.6 kcal/mol, the denaturant m value was 1.68 kcal/mol/M, the “denaturant midpoint” value turned out to be 3.65 M and the unfolding free energy amounted to 6.2 kcal/mol.

Take T112G F14N: the “ddG of mutation (higher = less stable)” value was -1.9 kcal/mol, the denaturant m value is 1.68 kcal/mol/M, the “denaturant midpoint” value stood at 4.46 M and the unfolding free energy turned out to be 7.5 kcal/mol.

G76A F14N: the “ddG of mutation (higher = less stable)” value was -3.4 kcal/mol, the denaturant m value amounted to 1.77 kcal/mol/M, the “denaturant midpoint” value amounted to 5.08 M and the unfolding free energy was 9 kcal/mol.

As to D64A F14N, the “ddG of mutation (higher = less stable)” value was -1.7 kcal/mol, the denaturant m value is 1.69 kcal/mol/M, the “denaturant midpoint” value stood at 4.32 M and the unfolding free energy stood at 7.3 kcal/mol.

Consider A114G, for which the “ddG of mutation (higher = less stable)” value is 0.5 kcal/mol, the denaturant m value was 1.6 kcal/mol/M, the “denaturant midpoint” value amounted to 3.2 M and the unfolding free energy stood at 5.1 kcal/mol.

Take A74G: the “ddG of mutation (higher = less stable)” value was 0.3 kcal/mol, the denaturant m value came out at 1.6 kcal/mol/M, the “denaturant midpoint” value is 3.32 M and the unfolding free energy turned out to be 5.3 kcal/mol.

Consider A42G F14N, for which the “ddG of mutation (higher = less stable)” value is -0.6 kcal/mol, the denaturant m value turned out to be 1.73 kcal/mol/M, the “denaturant midpoint” value was found to be 3.58 M and the unfolding free energy amounted to 6.2 kcal/mol.

With D38G F14N, the “ddG of mutation (higher = less stable)” value was -1.9 kcal/mol, the denaturant m value worked out at 1.81 kcal/mol/M, the “denaturant midpoint” value came to 4.14 M and the unfolding free energy stood at 7.5 kcal/mol.

For the variant D64G F14N, the “ddG of mutation (higher = less stable)” value was -2.6 kcal/mol, the denaturant m value came out at 1.72 kcal/mol/M, the “denaturant midpoint” value turned out to be 4.77 M and the unfolding free energy turned out to be 8.2 kcal/mol.

A99G: the “ddG of mutation (higher = less stable)” value amounted to 0.5 kcal/mol, the denaturant m value came out at 1.58 kcal/mol/M, the “denaturant midpoint” value was 3.23 M and the unfolding free energy worked out at 5.1 kcal/mol.

Consider A88G, for which the “ddG of mutation (higher = less stable)” value is -0.1 kcal/mol, the denaturant m value is 1.64 kcal/mol/M, the “denaturant midpoint” value turned out to be 3.48 M and the unfolding free energy is 5.7 kcal/mol.

Turning to A36G F14N, the “ddG of mutation (higher = less stable)” value was determined as 0.2 kcal/mol, the denaturant m value stood at 1.6 kcal/mol/M, the “denaturant midpoint” value came to 3.41 M and the unfolding free energy stood at 5.4 kcal/mol.
